The RNAGym collection of RNA variant scans (doi:10.1093/nar/gkz1192)

B1: CPEB3 Ribozyme (parent)
chain: UAACAGGGGGCCACAGCAGAAGCGUUCACGUCGCAGCCCCUGUCAGAUUCUGGUGAAUCUGCGAAUUCUGCUGUAUAUCUC

Variants of: B1
Test: self-cleavage, relative activity (ratio to wild type); higher = more cleavage; in vitro, sequencing
How it was run: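 Relative activity was defined as the cleaved/total read fraction for a variant divided by the same fraction for the unmutated ribozyme. CPEB3 self-cleaving ribozyme libraries were made by rounds of error-prone PCR, barcoded, and transcribed in vitro with T7 RNA polymerase for 5 hours at 37°C, and cleavage ran through transcription plus a 15 min DNase I step before EDTA. Illumina sequencing of template-switched reverse transcripts gave the reads, and DNA sequencing mapped the barcodes. Averages come from three batches, using variants with at least 5 reads.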

Variant	self-cleavage
UAACAGGGGGCCACAGCAGAAGCGUUCACGUCGCAGCCCCUGUCAGAUUCCUGUGAAUCUGCGAAUUCUGCUGUAUAUCUC [U51C G52U]	0.94
UAACAGGGGGCCACAGCAGAAGCGUUCACGUCGCAGCCCCUGUCAGAUUCCAGUGAAUCUGCGAAUUCUGCUGUAUAUCUC [U51C G52A]	1.15
UAACAGGGGGCCACAGCAGAAGCGUUCACGUCGCAGCCCCUGUCAGAUUCCCGUGAAUCUGCGAAUUCUGCUGUAUAUCUC [U51C G52C]	1
UAACAGGGGGCCACAGCAGAAGCGUUCACGUCGCAGCCCCUGUCAGAUUCCGGUGAAACUGCGAAUUCUGCUGUAUAUCUC [U51C U58A]	0.25
UAACAGGGGGCCACAGCAGAAGCGUUCACGUCGCAGCCCCUGUCAGAUUCCGGUGAACCUGCGAAUUCUGCUGUAUAUCUC [U51C U58C]	0.37
UAACAGGGGGCCACAGCAGAAGCGUUCACGUCGCAGCCCCUGUCAGAUUCCGGUGAAUCUGCGAAUUCUGCUGUAUACCUC [U51C U78C]	0.99
UAACAGGGGGCCACAGCAGAAGCGUUCACGUCGCAGCCCCUGUCAGAUUCCGGUGAAUCUGCGAAUUCUGCUGUAUAACUC [U51C U78A]	1.02
UAACAGGGGGCCACAGCAGAAGCGUUCACGUCGCAGCCCCUGUCAGAUUCCGGUGAAUCUGCGAAUUCUGCUGGAUAUCUC [U51C U74G]	1.21
UAACAGGGGGCCACAGCAGAAGCGUUCACGUCGCAGCCCCUGUCAGAUUCCGGUGAAUCUGCGAAUUCUGCUGCAUAUCUC [U51C U74C]	1.21
UAACAGGGGGCCACAGCAGAAGCGUUCACGUCGCAGCCCCUGUCAGAUUCCGGUGAAUCUGCGAAUUCUGCUGAAUAUCUC [U51C U74A]	1.3
UAACAGGGGGCCACAGCAGAAGCGUUCACGUCGCAGCCCCUGUCAGAUUCCGGUGAAUCCGCGAAUUCUGCUGUAUAUCUC [U51C U60C]	0.36
UAACAGGGGGCCACAGCAGAAGCGUUCACGUCGCAGCCCCUGUCAGAUUCCGGUGAAUCAGCGAAUUCUGCUGUAUAUCUC [U51C U60A]	0.49
UAACAGGGGGCCACAGCAGAAGCGUUCACGUCGCAGCCCCUGUCAGAUUCCGGUGAAUCGGCGAAUUCUGCUGUAUAUCUC [U51C U60G]	0.4
UAACAGGGGGCCACAGCAGAAGCGUUCACGUCGCAGCCCCUGUCAGAUUCGGGUGAAUCUACGAAUUCUGCUGUAUAUCUC [U51G G61A]	0.45
UAACAGGGGGCCACAGCAGAAGCGUUCACGUCGCAGCCCCUGUCAGAUUCGGGUGAAUCUGCGAAUUCUGCUGUAUGUCUC [U51G A77G]	1.1
UAACAGGGGGCCACAGCAGAAGCGUUCACGUCGCAGCCCCUGUCAGAUUCGGGUGAAUCUGCGAAUUCUGCUGUAUUUCUC [U51G A77U]	1.16
UAACAGGGGGCCACAGCAGAAGCGUUCACGUCGCAGCCCCUGUCAGAUUCGGGUGAAUCUGCGAAUUCUGCUGUGUAUCUC [U51G A75G]	0.89

Variant	self-cleavage
UAACAGGGGGCCACAGCAGAAGCGUUCACGUCGCAGCCCCUGUCAGAUUCGGGUGAAUCUGCGAAUUCUGCUGUUUAUCUC [U51G A75U]	1.22
UAACAGGGGGCCACAGCAGAAGCGUUCACGUCGCAGCCCCUGUCAGAUUCCGGUGAAUCUGCGAAAUCUGCUGUAUAUCUC [U51C U66A]	0.65
UAACAGGGGGCCACAGCAGAAGCGUUCACGUCGCAGCCCCUGUCAGAUUCCGGUGAAUCUGCGAACUCUGCUGUAUAUCUC [U51C U66C]	0.49
UAACAGGGGGCCACAGCAGAAGCGUUCACGUCGCAGCCCCUGUCAGAUUCGGCUGAAUCUGCGAAUUCUGCUGUAUAUCUC [U51G G53C]	1.19
UAACAGGGGGCCACAGCAGAAGCGUUCACGUCGCAGCCCCUGUCAGAUUCCGGUGAAUCUGCGAAUUCUGCUGUAUAUCAC [U51C U80A]	1.13
UAACAGGGGGCCACAGCAGAAGCGUUCACGUCGCAGCCCCUGUCAGAUUCCGGUGAAUCUGCGAAUUCUGCUGUAUAUCCC [U51C U80C]	1.15
UAACAGGGGGCCACAGCAGAAGCGUUCACGUCGCAGCCCCUGUCAGAUUCCGGUGAAUCUGCGAAUUCUGCUGUAUAUCGC [U51C U80G]	1.17
UAACAGGGGGCCACAGCAGAAGCGUUCACGUCGCAGCCCCUGUCAGAUUCCGGUGAAUCUGCGAAUUCUGCUGUAUAUAUC [U51C C79A]	1.24
UAACAGGGGGCCACAGCAGAAGCGUUCACGUCGCAGCCCCUGUCAGAUUCCGGUGAAUCUGCGAAUUCGGCUGUAUAUCUC [U51C U69G]	0.56
UAACAGGGGGCCACAGCAGAAGCGUUCACGUCGCAGCCCCUGUCAGAUUCCGGUGAAUCUGCGAAUUCCGCUGUAUAUCUC [U51C U69C]	0.6
UAACAGGGGGCCACAGCAGAAGCGUUCACGUCGCAGCCCCUGUCAGAUUCCGGUGAAUCUGCGAAUUCAGCUGUAUAUCUC [U51C U69A]	0.7
UAACAGGGGGCCACAGCAGAAGCGUUCACGUCGCAGCCCCUGUCAGAUUCGGGUGAAUCUGCGAAUUCUGCUGUAUAUCUC [U51G]	0.99
UAACAGGGGGCCACAGCAGAAGCGUUCACGUCGCAGCCCCUGUCAGAUUCCGGUGAAUCUGCGAAUUCUACUGUAUAUCUC [U51C G70A]	0.47
UAACAGGGGGCCACAGCAGAAGCGUUCACGUCGCAGCCCCUGUCAGAUUCGGGUGAAUCUGCGAAUUCUGCUGUAUAUCUA [U51G C81A]	1.25
UAACAGGGGGCCACAGCAGAAGCGUUCACGUCGCAGCCCCUGUCAGAUUCGGGUGAAUCUGCGAAUUCUACUGUAUAUCUC [U51G G70A]	0.69
UAACAGGGGGCCACAGCAGAAGCGUUCACGUCGCAGCCCCUGUCAGAUUCCGGUGAAUCUGCUAAUUCUGCUGUAUAUCUC [U51C G63U]	1.07
UAACAGGGGGCCACAGCAGAAGCGUUCACGUCGCAGCCCCUGUCAGAUUCCGGUGAAUCUGCAAAUUCUGCUGUAUAUCUC [U51C G63A]	0.61
